Test results: paper PMC12404759, “Efficacy and safety of a therapeutic humanized FSH-blocking antibody in obesity and Alzheimer’s disease models” (The Journal of Clinical Investigation, 2025)

What was measured:
[1] = biological target: T1, follicle-stimulating hormone (FSH) (Homo sapiens (Human)., UniProt P01215;P01225); assay: protein thermal shift assay; antibody incubated with FSH; right-shift in melting temperature (Tm) of the ligand-binding Fab domain; conditions: both partners purified
T1 construct: FSH alpha subunit (FSHα, glycoprotein hormones alpha chain); FSH beta subunit (FSHβ); Heterodimeric hormone

[2] = biological target: T1, follicle-stimulating hormone (FSH); assay: cell-based or functional assay

T1 sequence (P01215 25-116, chain 1 of 2): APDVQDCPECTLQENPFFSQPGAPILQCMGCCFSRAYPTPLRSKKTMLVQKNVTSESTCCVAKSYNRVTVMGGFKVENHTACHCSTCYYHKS
T1 sequence (P01225 19-129, chain 2 of 2): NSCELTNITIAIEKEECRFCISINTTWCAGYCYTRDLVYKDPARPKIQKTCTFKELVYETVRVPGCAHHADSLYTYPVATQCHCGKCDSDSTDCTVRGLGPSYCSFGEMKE

B1: MS-Hu6 (antibody, V domains shown)
VH: QVQLQESGPGLVKPSQTLSLTCTVSGFSITSDYAWNWIRQPPGKGLEWIGSIFSSGSINYNPSLKSRVTISRDTSKNQFSLKLSSVTAADTAVYYCARGGTGTDYWGQGTLVTVSS
VL: DIQMTQSPSSLSASVGDRVTITCRASQDISNYLSWYQQKPGKAIKLLIYYTSRLHSGVPSRFSGSGSGTDYTLTISSLQPEDFATYFCQQGHTLPPTFGGGTKVEIK
notes: humanized VH and CH1; heavy chain of the Fab fragment (Hu6-Fab) deposited as PDB 8VZW; hinge and Fc of the full-length IgG; humanized VL and CL; light chain of the Fab fragment (Hu6-Fab) deposited as PDB 8VZW; the chimeric precursor used human IgK-CL; Full-length humanized IgG derived from the murine antibody Hf2 with the CDRs unaltered; The crystal was of the Fab fragment only
Question: For B1, which “right-shift in Tm of the Fab domain” value [1] is on record?
Answer: ~1.8 °C

Question: What about the “EC50 based on UCP1 activation in dedifferentiated brown adipocytes (Thermo cells)” value [2] of the same binder?
Answer: 3.21 nM

Question: And the “IC50 for cAMP inhibition in SH-SY5Y human neuroblastoma cells” value [2]?
Answer: 2.01 nM

Question: What about the “IC50 of inhibition of cAMP elevation in response to FSH (5 μg/mL) in KGN human ovarian cancer cells” value [2] of the same binder?
Answer: 0.64 nM
